Reference: patent publication US20260137799A1, “ANTI-MUC1* ANTIBODY DRUG COMPLEXES AND USES THEREOF” (Minerva Biotechnologies Corporation, priority 2023, published 2026)
Changes are numbered by the printed parent chain.

Legend:
[1] = molecular target: PSMGFR C-10 peptide (SEQ ID NO: 3) (Homo sapiens, UniProt P15941); assay: ELISA binding to PSMGFR C-10 peptide; details: ELISA
Excerpt: Cancer selective anti-MUC1* antibodies bind to a membrane proximal conformational epitope within the MUC1* extracellular domain, as described in WO 2020/146902.
The 3C2B1 epitope was mapped more precisely with additional PSMGFR peptide variants (FIGS. 2A, 2B).

[2] = system: MUC1 after cleavage by MMP9; assay: Binding to MUC1-expressing cells after MMP9 cleavage; assay type: cell-based
MUC1 after cleavage by MMP9, sequence (P15941 1120-1255 limits assumed): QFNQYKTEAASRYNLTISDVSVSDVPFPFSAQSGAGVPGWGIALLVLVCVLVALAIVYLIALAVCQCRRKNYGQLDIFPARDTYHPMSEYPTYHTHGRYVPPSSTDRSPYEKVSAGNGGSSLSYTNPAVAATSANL
Method: The binding strength of anti-MUC1* antibodies is evaluated by determining their ability to displace NMF7-AB (a MUC1* ligand) from MUC1* immobilized on the plastic surface of a 96-well plate. Because the cancer-selective MUC1* epitope is a conformational epitope, cancer-selective anti-MUC1* antibodies should not recognize MUC1* on a western blot, where the epitope is linearized. MMP9 is a protease that cleaves MUC1 to generate MUC1*. MMP9 is a predictor of poor prognosis for breast cancers. Some cancer-selective anti-MUC1* antibodies, particularly breast cancer selective antibodies, should bind to cells engineered to express MUC1 after they are contacted with MMP9 to convert the MUC1 to MUC1*.

[3] = system: H2110-wt lung cancer cell line; assay: xCELLigence impedance cytotoxicity, H2110; assay type: cell-based, human; details: Example 9 (FIGS. 35-36); read-out: IC50, lung cancer H2110-wt cells
Method: (§1) An xCELLigence RTCA MP Instrument (Agilent) was used to assess real-time killing of target cancer cells). In the xCELLigence system, target cancer cells, which are adherent, are plated onto electrode array 96-well plates. Adherent cells insulate the electrode and increase the impedance. The number of adherent cancer cells is directly proportional to impedance. […] Therefore, increasing impedance reflects the growth of the cancer cells and decreasing impedance reflects the killing of the cancer cells.
(§2) Target Cancer cells (Table 9) were seeded onto a multi-electrode well plate at a density of 5000 cells/well (100 μL of a 50,000 cells/mL stock) and incubated for 24 hr in a 37° C./5% CO2 incubator. ADCs were prepared as a 2× solution in corresponding growth media and 100 μL of each concentration was added to target cells. As a positive control (100% cell killing) cells were treated with either 1% triton or 1 μM Taxol instead of ADC. After 40-120 hours incubation in a 37° C./5% CO2 incubator cell killing was assessed. In this assay, impedance is measured in real-time. When the adherent cancer cells are killed and come off the electrode surface, impedance (insulation) decreases.
(§3) To directly compare the C2 and 3C2B1 anti-MUC1* antibodies as ADC targeting domains, a panel of MUC1* positive cancer cell lines representing different cancer types were treated with C2-deruxtecan versus 3C2B1-deruxtecan (FIG. 35) or C2-MC-VA-PAB-exatecan versus 3C2B1-MC-VA-PAB-exatecan (FIG. 36). In some cases, the cancer cells were engineered to express high levels of MUC1*45.

HPAF-II MUC1* = assay: xCELLigence impedance cytotoxicity, HPAF-II MUC1*; assay type: cell-based, human; details: Example 9 (FIG. 35); average; read-out: IC50, HPAFII cells engineered to express MUC1*45
Method: as §1, §2

H1975-MUC1*45 cells = assay: Antibody internalization (pHrodo Deep Red), H1975-MUC1*45; assay type: cell-based, human; details: H1975-MUC1*45 vs H1975-wt
Method: (§4) Antibodies C2 and 3C2B1 were tested for their ability to be internalized by H1975 lung cancer cells (H1975-wt) and H1975 cells that were engineered to express high levels of a recombinant MUC1* polypeptide with a 45 amino acid extracellular domain (H1975-MUC1*45). In contrast to the T47D breast cancer cells, H1975-wt cells internalized 3C2B1 faster than they internalized C2 (FIGS. 4A1-4A28, 4C1-4C28 and 4E). Two (2) hours post incubation with H1975-wt cells, […] the cells had internalized C2. […] Similar to the T47D cells, MUC1*45 expression increased the internalization rate of C2 and decreased the internalization rate of 3C2B1 (FIGS. 4B1-4B28, 4D1-4D28 and 4E).
(§5) Antibodies C2 and 3C2B1 were coupled to a pH sensitive fluorophore using the pHrodo Deep Red TFP Ester kit (Thermo cat #P35356), according to manufacturer instructions. Cancer cells were seeded at ˜50,000 cells/well onto μ-Slide 8-well tissue culture-treated, chambered coverslip wells (Ibidi 80806) in their recommended media with 10% FBS. Cells were cultured for 48 hours. Slides were transferred into microscope chamber (37° C.—5% CO2) and equilibrated for ˜30 minutes. The pHrodo Deep Red coupled antibody was then diluted to a concentration of 200 to 300 μg/mL into pre-warmed media supplemented with 10% FBS. Media was removed from the chamber slides and the diluted antibodies were separately added. Fluorescent (655 nm) and phase contrast images at were collected every 10 min for 12h or 16 h with a Leica Thunder Live Cell 3D microscope.
(§6) Internalization of the fluorescently labeled antibodies was quantified as follows. Images were imported into ImageJ. The selection tool was used to draw a region of interest (ROI) on the image. The integrated pixel density (mean gray-scale value×area) was then measured by the ImageJ software. Positively-stained cells were manually counted and the integrated pixel density was divided by the number of positive cells to yield “Pixel Intensity per positive cell”.

MUC1*45 = MUC1*45 (UniProt P15941 1110-1255); assay: cell-based or functional assay
T47D = assay: xCELLigence impedance cytotoxicity, T47D; assay type: cell-based, human; details: Example 9 (FIGS. 35-36); average over batches for DXd ADCs; read-out: IC50 for killing of breast cancer T47D-wt cells
Method: as §1, §2

[4] = system: H1975 lung cancer cells (H1975-wt); assay: Antibody internalization (pHrodo Deep Red), H1975-wt; assay type: cell-based, human; details: H1975 cells
Method: as §4, §5, §6

HPAF-II = assay: xCELLigence impedance cytotoxicity, HPAF-II; assay type: cell-based, human; details: Example 9 (FIG. 35); average; listed as 3C2B1-MC-GGFG-AM-DXd; read-out: IC50 for killing of HPAFII-wt pancreatic cancer cells
Method: as §1, §2

[5] = system: CFPAC1-wt pancreatic cancer cell line; assay: xCELLigence impedance cytotoxicity, CFPAC1; assay type: cell-based, human; details: Example 9 (FIGS. 35-36); read-out: IC50, CFPAC1-wt pancreatic cancer cells
Method: as §1, §2, §3

PSMGFR C-10 peptide (SEQ ID NO: 3), sequence (P15941 1110-1144 limits assumed): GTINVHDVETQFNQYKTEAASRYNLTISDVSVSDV

B1: 18G12: anti-MUC1* monoclonal antibody that bound to the PSMGFR peptide (antibody, V domains shown)
VH: QVQLVQSGAEVKKPGASVKVSCKASGYTFTGYFLYWVRQAPGQGLEWIGGINPDNGGIDFNEKFRNRATLTVDKSSSTAYMELSSLRSEDTAVYYCTLLIGNYWGQGTLVTVSS
VL: DVVMTQTPSSLSVTPGQPASISCKSSQSLLHSDGKTYLIWLQQKPGQSPQRLIYLVSKLDSGVPDRFSGSGSGTDFTLKISRVEAEDVGVYYCCQGTHFPWTFGQGTKVEIK
[1]
  Does not bind C-10: 0
[2]
  Recognizes MUC1 after cleavage by MMP9: 0

B2: 28F9: anti-MUC1* monoclonal antibody that bound to the PSMGFR peptide (antibody, V domains shown)
VH: B1 VH with N52H, D54S, G57D, I58T, R65K, K74I, E89D, T97A, L98R, N102V
VL: B1 VL with T7S, S9L, P15L, K44R, Q50R, Y92F
modifications: humanized form
[1]
  Does not bind C-10: 0
[2]
  Recognizes MUC1 after cleavage by MMP9: 0

B3: 3C2B1-deruxtecan (antibody, V domains shown)
VH: EVMLVESGGGLVKPGGSLKLSCAASGITFSTYTMSWVRQTPEKRLEWVATISTGGDKTYYSDSVKGRFTISRDNAKNNLYLQMSSLRSEDTALYYCARGTTAMYYYAMDYWGQGTSVTVSS
VL: DIVLTQSPASLAVSLGQRATISCRASKSISTSDYNYIHWYQQKPGQPPKLLIYLASNLESGVPARFSGSGSGTDFTLNIHPVEEEDAATYYCQHSRELPLTFGAGTKLELK
modifications: deruxtecan (MC-GGFG-AM-DXd) on reduced cysteine thiols of the antibody, sites not stated; deruxtecan (MC-GGFG-AM-DXd) on reduced cysteine thiols of the antibody, sites not stated; average DAR 9.2
[3]
  IC50: 90 nM
HPAF-II MUC1*
  IC50: 160 nM
H1975-MUC1*45 cells
  effect of MUC1*45 expression on internalization rate: inhibited
MUC1*45
  IC50, killing of H1975 lung cancer cells engineered to express MUC1*45 (xCELLigence): 343 nM
  IC50, killing of T47D breast cancer cells engineered to express more MUC1*45 (xCELLigence): 48 nM
T47D
  IC50: 61 nM
[4]
  internalization rate of the ADC compared to antibody alone: about the same rate as the 3C2B1 antibody alone
HPAF-II
  IC50: > 303 nM
[5]
  IC50: 34 nM
